Test results from article PMC7408900, “Cancer-Associated Substitutions in RNA Recognition Motifs of PUF60 and U2AF65 Reveal Residues Required for Correct Folding and 3′ Splice-Site Selection”.

Legend:
PUF60 WT [1] = molecular target: T1, PUF60 WT (human, UniProt Q9UHX1 1-559); experiment: EMSA; Kd only in figure; Hill 3.0; similar affinity to can probe; EMSA: 40 mM Tris pH 8.0, 5 mM MgCl2, 0.25 ug/uL heparin, 0.01% Triton, 1 mM DTT, room temperature 20 min; 6% native PAGE in 0.5x TBE at 4 C; 15-17 nM biotin-RNA; settings: protein: recombinant; tags: 2xHis-lipoyl-TEV, removed by TEV; label: 5' biotin; single strand
T1 sequence (Q9UHX1 whole entry): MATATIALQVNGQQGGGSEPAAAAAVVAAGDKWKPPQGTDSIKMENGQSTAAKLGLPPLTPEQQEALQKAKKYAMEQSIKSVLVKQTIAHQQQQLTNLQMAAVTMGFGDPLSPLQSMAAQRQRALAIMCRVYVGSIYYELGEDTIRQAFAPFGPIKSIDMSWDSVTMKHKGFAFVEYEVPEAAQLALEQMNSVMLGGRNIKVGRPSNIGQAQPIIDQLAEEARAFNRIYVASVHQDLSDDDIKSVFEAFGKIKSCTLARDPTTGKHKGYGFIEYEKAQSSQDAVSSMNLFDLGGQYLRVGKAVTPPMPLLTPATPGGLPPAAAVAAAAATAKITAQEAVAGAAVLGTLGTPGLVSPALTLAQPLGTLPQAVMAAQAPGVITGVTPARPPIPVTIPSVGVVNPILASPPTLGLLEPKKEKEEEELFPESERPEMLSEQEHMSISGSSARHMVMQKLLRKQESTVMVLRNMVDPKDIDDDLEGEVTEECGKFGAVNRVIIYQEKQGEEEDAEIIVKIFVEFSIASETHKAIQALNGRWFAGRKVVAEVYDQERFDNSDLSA

U2AF65 WT [2] = molecular target: T2, U2AF65 WT (human, UniProt P26368 1-475); experiment: EMSA; Kd shown only in figure; 0.13-4.2 uM protein; similar affinity to can probe; EMSA: 40 mM Tris pH 8.0, 5 mM MgCl2, 0.25 ug/uL heparin, 0.01% Triton, 1 mM DTT, room temperature 20 min; 6% native PAGE in 0.5x TBE at 4 C; 15-17 nM biotin-RNA; settings: protein: recombinant; tags: N-terminal GST (pGEX6P, eluted with glutathione); label: 5' biotin; single strand
T2 sequence (P26368 whole entry, one chain of several): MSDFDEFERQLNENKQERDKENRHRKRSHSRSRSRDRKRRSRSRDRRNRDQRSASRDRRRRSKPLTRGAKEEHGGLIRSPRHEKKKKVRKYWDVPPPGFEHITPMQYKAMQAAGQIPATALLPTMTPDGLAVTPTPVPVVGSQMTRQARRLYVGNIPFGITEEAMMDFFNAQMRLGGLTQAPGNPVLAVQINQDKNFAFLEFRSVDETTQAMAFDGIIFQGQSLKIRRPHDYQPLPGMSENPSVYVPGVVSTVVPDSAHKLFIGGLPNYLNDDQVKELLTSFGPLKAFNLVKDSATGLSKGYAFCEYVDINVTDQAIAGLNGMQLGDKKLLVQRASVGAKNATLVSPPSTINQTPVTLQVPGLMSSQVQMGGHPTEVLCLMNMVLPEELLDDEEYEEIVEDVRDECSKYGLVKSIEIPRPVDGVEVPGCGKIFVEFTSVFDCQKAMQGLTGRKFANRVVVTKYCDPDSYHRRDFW

PUF60 WT [3] = molecular target: T1, PUF60 WT; experiment: EMSA; Kd only in figure; Hill 2.6; similar affinity to cr probe; EMSA: 40 mM Tris pH 8.0, 5 mM MgCl2, 0.25 ug/uL heparin, 0.01% Triton, 1 mM DTT, room temperature 20 min; 6% native PAGE in 0.5x TBE at 4 C; 15-17 nM biotin-RNA; settings: protein: recombinant; tags: 2xHis-lipoyl-TEV, removed by TEV; label: 5' biotin; single strand
U2AF65 WT [4] = molecular target: T2, U2AF65 WT; experiment: EMSA; Kd shown only in figure; 0.13-4.2 uM protein; similar affinity to cr probe; EMSA: 40 mM Tris pH 8.0, 5 mM MgCl2, 0.25 ug/uL heparin, 0.01% Triton, 1 mM DTT, room temperature 20 min; 6% native PAGE in 0.5x TBE at 4 C; 15-17 nM biotin-RNA; settings: protein: recombinant; tags: N-terminal GST (pGEX6P, eluted with glutathione); label: 5' biotin; single strand
PUF60 WT [5] = molecular target: T1, PUF60 WT; experiment: EMSA; strong binding; 0.14-1.25 uM protein, 15 nM RNA; EMSA: 40 mM Tris pH 8.0, 5 mM MgCl2, 0.25 ug/uL heparin, 0.01% Triton, 1 mM DTT, room temperature 20 min; 6% native PAGE in 0.5x TBE at 4 C; 15-17 nM biotin-RNA; settings: protein: recombinant; tags: 2xHis-lipoyl-TEV, removed by TEV; label: 5' biotin; single strand

B1: UBE2F-cr3'ss-32 (ssRNA)
RNA: CUUUUUGUUUCCUUUUUUUUUUAAUUUAAAGG
binding result (PUF60 WT [1]): binds
binding result (U2AF65 WT [2]): binds

B2: UBE2F-can3'ss-32 (ssRNA)
RNA: UUUUUUUGUUUUGUUUUGUGUUUUUUGAUAGA
binding result (PUF60 WT [3]): binds
binding result (U2AF65 WT [4]): binds

B3: AdML (ssRNA)
RNA: UUCGUGCUGACCUGUCCCUUUUUUUUCCACAGC
binding result (PUF60 WT [5]): binds
